PMC4176334

Experiments:
[1] = molecular target: T1, M. tuberculosis RNAP core;SigJ (Mycobacterium tuberculosis;Mycobacterium tuberculosis H37Rv?) (UniProt P9WGZ1+P9WGY9+P9WGY7+P9WGY5+L0TCG5); assay: DNase I footprinting
[2] = molecular target: T2, M. tuberculosis RNAP core;SigJ;RbpA (Mycobacterium tuberculosis;Mycobacterium tuberculosis H37Rv?;Mycobacterium tuberculosis) (UniProt P9WGZ1+P9WGY9+P9WGY7+P9WGY5+L0TCG5+P9WHJ5); assay: DNase I footprinting
[3] = molecular target: T1, M. tuberculosis RNAP core;SigJ (Mycobacterium tuberculosis;Mycobacterium tuberculosis H37Rv?); assay: KMnO4 footprinting
[4] = molecular target: T2, M. tuberculosis RNAP core;SigJ;RbpA (Mycobacterium tuberculosis;Mycobacterium tuberculosis H37Rv?;Mycobacterium tuberculosis); assay: KMnO4 footprinting
[5] = molecular target: M. tuberculosis RNAP core;SigA (Mycobacterium tuberculosis;Mycobacterium tuberculosis) (UniProt P9WGZ1+P9WGY9+P9WGY7+P9WGY5+P9WGI1); assay: EMSA
[6] = molecular target: M. tuberculosis RNAP core;SigA;RbpA (Mycobacterium tuberculosis;Mycobacterium tuberculosis;Mycobacterium tuberculosis) (UniProt P9WGZ1+P9WGY9+P9WGY7+P9WGY5+P9WGI1+P9WHJ5); assay: EMSA

Measured: binding

GCCCTCCCGCCGACCCATGCTGGAATTCATAACATCAAGGACGAGACAGCCCCGCCGAATGTGACAGCAACCGGCGATTTCAGCGCTCGGCGC (double strand) [sigIP promoter]
binds: [1] | [2] | [3] | [4]

TTGAGTTCTCAAACAACACGCTTGCTTGTTTCCGCCCGCTTCGGGGCAACCCTGCCAGTCTAATACAAATCCGGCAATGGAGTCAAGACCAGGTTCGGTCATCCATAGATATCCATAGGTGACCGTCGCCTAACAGCATACCCGTTCGAT (double strand) [rrnAP3 promoter]
binds: [5] | [6]
